Drawing on patent US20170145086A1, this text covers EC50, IC50 and % Inhibition for one molecule.

Assay [1] has as its target HA-GCN4 hAPRIL (amino acid residues 105-250) (human) (UniProt O75888). The assay is described as follows: indirect ELISA, purified antibody, 3-parameter fit.
The target is the same in assay [2]. The assay is described as follows: blocking ELISA; blocked: APRIL binding to TACI-Fc. On the technique in general: ELISA stands for enzyme-linked immunosorbent assay.
Assay [3] has the same target. Nature of the assay: blocking ELISA, 4-parameter fit; blocked: human APRIL binding to human TACI-Fc.
The target is the same in assay [4]. Nature of the assay: blocking ELISA; blocked: human APRIL binding to human BCMA-Fc.
Assay [5] shares this target. Nature of the assay: blocking ELISA; blocked: human APRIL binding to human TACI-Fc.
Assay [6] has the same target. Nature of the assay: blocking ELISA, 4-parameter fit; blocked: human APRIL binding to human BCMA-Fc.

HA-GCN4 hAPRIL (amino acid residues 105-250) (human), sequence (O75888 105-250): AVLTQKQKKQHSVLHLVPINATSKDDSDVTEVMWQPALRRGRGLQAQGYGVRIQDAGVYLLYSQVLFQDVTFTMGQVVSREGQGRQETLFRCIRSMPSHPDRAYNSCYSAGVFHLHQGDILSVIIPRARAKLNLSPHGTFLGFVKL

B1: 0201 (antibody, from another filing)
scFv: EVQLVQSGAEVKKPGASVKVSCKTSGYTFTDNYMHWVRQAPGQGLEWMGWISPNSSTTLYAQKFRGRVTLTRDTSVSTAYMELSGLDSDDTALYFCARGGRLAGSTVFTPAFEYWGRGTMVTVSSGGGGSGGGGSGGGGSAQAVLTQPSSVSEAPRQRVTISCSGSSSNIGNNAVKWYQQLPGKAPKLLIYYDDLLPSGVSDRFSGSKSGTSASLAISGLQSEDEADYYCAAWDDSLNGYVFGTGTKVTVLG
Consider B1, for which the EC50 (commonly the concentration at which the effect is half-maximal) in assay [1] amounted to 0.0104 µg/mL. The figures for the IC50 in assay [2], in assay [3] and in assay [6] were 0.204 µg/mL, 2.85 nM and 3.14 nM, respectively. In addition, the % Inhibition in assay [4] and in assay [5] was 99% in each case.
